Results published in article PMC4810480.

Biological target: human CD26 (residues 39 to 766) (human) (UniProt P27487)
Assay: SPR

Chain of UniProt P27487 (P27487 39-766): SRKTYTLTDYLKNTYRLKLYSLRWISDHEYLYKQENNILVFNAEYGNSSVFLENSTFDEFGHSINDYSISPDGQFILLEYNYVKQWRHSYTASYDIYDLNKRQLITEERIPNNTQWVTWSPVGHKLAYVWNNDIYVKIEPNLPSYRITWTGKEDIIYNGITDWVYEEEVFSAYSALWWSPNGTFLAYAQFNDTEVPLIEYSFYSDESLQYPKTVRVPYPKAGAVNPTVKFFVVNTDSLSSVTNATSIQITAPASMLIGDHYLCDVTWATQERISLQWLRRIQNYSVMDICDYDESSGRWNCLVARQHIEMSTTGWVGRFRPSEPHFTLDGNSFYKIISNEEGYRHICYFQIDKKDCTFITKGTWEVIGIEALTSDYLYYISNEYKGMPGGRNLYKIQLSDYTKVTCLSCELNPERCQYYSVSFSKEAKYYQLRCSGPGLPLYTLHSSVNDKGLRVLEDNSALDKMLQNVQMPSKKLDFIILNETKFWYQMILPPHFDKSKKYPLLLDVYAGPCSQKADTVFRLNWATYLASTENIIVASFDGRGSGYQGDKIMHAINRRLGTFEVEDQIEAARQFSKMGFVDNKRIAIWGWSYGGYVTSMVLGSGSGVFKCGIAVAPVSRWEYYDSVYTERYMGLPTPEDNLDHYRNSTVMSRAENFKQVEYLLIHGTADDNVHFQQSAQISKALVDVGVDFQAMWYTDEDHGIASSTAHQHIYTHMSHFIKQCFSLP

MERS-CoV spike receptor-binding domain (RBD), wild type (from UniProt K9N5Q8 367-606) (domain or fragment)
Kd: 0.0645 µM
koff: 0.000936 s⁻¹
kon: 14500 M⁻¹ s⁻¹
